Measurements from article PMC9496542.

Experiments:
Assay in all cases: NMR
Conditions in all cases: 298 K, 150 mM NaCl, 20 mM HEPES, 1 mM TCEP (working buffer), apo (no Ni(II)), intrinsically disordered, Cys394 reduced
[1] = biological target: His371 (UniProt position 371, …)
[2] = biological target: His345 (UniProt position 345, …)
[3] = biological target: His355 (UniProt position 355, …)
[4] = biological target: His365 (UniProt position 365, …)

B1: N-myc downstream-regulated gene 1 protein, C-terminal intrinsically disordered region (hNDRG1*C) (Homo sapiens) (protein)
chain: GMGYMPSASMTRLMRSRTASGSSVTSLDGTRSRSHTSEGTRSRSHTSEGTRSRSHTSEGAHLDITPNSGAAGNSAGPKSMEVSC
In the case of B1, the pKa [1] is reported as 6.84, the pKa [2] is reported as 6.65 and the pKa [3] is reported as 6.65. It also gave a pKa [4] of 6.72.
